To fix the notation:
B1: RIPK4 (parent)
chain: VIDLFDEQGLSALHLAAQGRHAQT
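Note: lentivirally expressed fusions sorted by FACS into six bins by GFP to DsRed ratio, PSI derived from sequencing read proportions per bin multiplied by bin number.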

In this series the parent is B1. Kind of series: protein stability index of a GFP-peptide fusion (GPS, HEK-293T) (PSI 1-6); higher = more stable. To be noted: c terminus: a fixed tail appended.
For the variant QIDLFDEQGLSALHLAAQGRHAQT [V1Q], the protein stability index came out at 4.09.
For LIDLFDEQGLSALHLAAQGRHAQT [V1L] the value was 2.7; for PIDLFDEQGLSALHLAAQGRHAQT [V1P], 3.72.
The value for MIDLFDEQGLSALHLAAQGRHAQT [V1M] was 3.37; that for SIDLFDEQGLSALHLAAQGRHAQT [V1S] was 3.62; that for TIDLFDEQGLSALHLAAQGRHAQT [V1T] was 3.82.
In the case of WIDLFDEQGLSALHLAAQGRHAQT [V1W], the protein stability index was 2.76.
For the variant RIDLFDEQGLSALHLAAQGRHAQT [V1R], the protein stability index is 3.41.
The value for NIDLFDEQGLSALHLAAQGRHAQT [V1N] was 3.7; that for YIDLFDEQGLSALHLAAQGRHAQT [V1Y] was 2.16.
In the case of VIDCFDEQGLSALHLAAQGRHAQT [L4C], the protein stability index was found to be 2.76.
For VIDPFDEQGLSALHLAAQGRHAQT [L4P] the value was 3.73.
The value for VIDKFDEQGLSALHLAAQGRHAQT [L4K] was 3.92; that for VIDRFDEQGLSALHLAAQGRHAQT [L4R] was 3.34; that for VIDYFDEQGLSALHLAAQGRHAQT [L4Y] was 3.52.
The value for VIDFFDEQGLSALHLAAQGRHAQT [L4F] was 2.66; that for VIDHFDEQGLSALHLAAQGRHAQT [L4H] was 3.81.
With VIDVFDEQGLSALHLAAQGRHAQT [L4V], the protein stability index is 3.26.
For VIDWFDEQGLSALHLAAQGRHAQT [L4W] the value was 2.85; for VIDDFDEQGLSALHLAAQGRHAQT [L4D], 4.18; for VIDNFDEQGLSALHLAAQGRHAQT [L4N], 3.12.
For VIDSFDEQGLSALHLAAQGRHAQT [L4S] the value was 3.94; for VIDMFDEQGLSALHLAAQGRHAQT [L4M], 3.11.
For VIDIFDEQGLSALHLAAQGRHAQT [L4I] the value was 2.86; for VIDGFDEQGLSALHLAAQGRHAQT [L4G], 3.89; for VIDAFDEQGLSALHLAAQGRHAQT [L4A], 3.72.
As for VIDTFDEQGLSALHLAAQGRHAQT [L4T], the protein stability index was 3.79.
The value for VIDEFDEQGLSALHLAAQGRHAQT [L4E] was 4.29; that for VIDQFDEQGLSALHLAAQGRHAQT [L4Q] was 3.98.
With VIDLFDEQGLIALHLAAQGRHAQT [S11I], the protein stability index was found to be 2.13.
The value for VIDLFDEQGLHALHLAAQGRHAQT [S11H] was 2.51.
For VIDLFDEQGLAALHLAAQGRHAQT [S11A] the value was 2.79; for VIDLFDEQGLDALHLAAQGRHAQT [S11D], 3.04; for VIDLFDEQGLCALHLAAQGRHAQT [S11C], 2.63.
For VIDLFDEQGLGALHLAAQGRHAQT [S11G] the value was 2.94; for VIDLFDEQGLEALHLAAQGRHAQT [S11E], 3.11; for VIDLFDEQGLFALHLAAQGRHAQT [S11F], 2.43.
For VDDLFDEQGLSALHLAAQGRHAQT [I2D], the protein stability index is 4.21.
The value for VQDLFDEQGLSALHLAAQGRHAQT [I2Q] was 3.76; that for VEDLFDEQGLSALHLAAQGRHAQT [I2E] was 4.42; that for VYDLFDEQGLSALHLAAQGRHAQT [I2Y] was 2.97.
For VVDLFDEQGLSALHLAAQGRHAQT [I2V] the value was 3.67; for VMDLFDEQGLSALHLAAQGRHAQT [I2M], 3.26.
For VFDLFDEQGLSALHLAAQGRHAQT [I2F] the value was 2.42; for VNDLFDEQGLSALHLAAQGRHAQT [I2N], 3.79; for VADLFDEQGLSALHLAAQGRHAQT [I2A], 3.92.
As to VWDLFDEQGLSALHLAAQGRHAQT [I2W], the protein stability index is 2.36.
For VRDLFDEQGLSALHLAAQGRHAQT [I2R] the value was 3.24.
As to VPDLFDEQGLSALHLAAQGRHAQT [I2P], the protein stability index worked out at 3.66.
For VLDLFDEQGLSALHLAAQGRHAQT [I2L] the value was 2.25; for VTDLFDEQGLSALHLAAQGRHAQT [I2T], 3.64.
The value for VKDLFDEQGLSALHLAAQGRHAQT [I2K] was 3.89; that for VHDLFDEQGLSALHLAAQGRHAQT [I2H] was 4.22; that for VCDLFDEQGLSALHLAAQGRHAQT [I2C] was 3.4.
As to VGDLFDEQGLSALHLAAQGRHAQT [I2G], the protein stability index is 3.41.
For VSDLFDEQGLSALHLAAQGRHAQT [I2S] the value was 3.88; for VIALFDEQGLSALHLAAQGRHAQT [D3A], 1.79.
Take VIGLFDEQGLSALHLAAQGRHAQT [D3G]: the protein stability index was found to be 2.58.
For VISLFDEQGLSALHLAAQGRHAQT [D3S] the value was 2.69; for VICLFDEQGLSALHLAAQGRHAQT [D3C], 2.25.
The value for VIYLFDEQGLSALHLAAQGRHAQT [D3Y] was 1.1.
For VINLFDEQGLSALHLAAQGRHAQT [D3N] the value was 2.7.
With VITLFDEQGLSALHLAAQGRHAQT [D3T], the protein stability index was 2.17.
The value for VIILFDEQGLSALHLAAQGRHAQT [D3I] was 2.71.
For VIMLFDEQGLSALHLAAQGRHAQT [D3M] the value was 1.36; for VILLFDEQGLSALHLAAQGRHAQT [D3L], 1.89.
The value for VIQLFDEQGLSALHLAAQGRHAQT [D3Q] was 2.46.
VIFLFDEQGLSALHLAAQGRHAQT [D3F]: the protein stability index is 3.19.
For VIKLFDEQGLSALHLAAQGRHAQT [D3K] the value was 2.31.
For VIPLFDEQGLSALHLAAQGRHAQT [D3P] the value was 2.81.
For VIVLFDEQGLSALHLAAQGRHAQT [D3V] the value was 1.58; for VIRLFDEQGLSALHLAAQGRHAQT [D3R], 2.34.
In the case of VIHLFDEQGLSALHLAAQGRHAQT [D3H], the protein stability index came out at 1.68.
For VIELFDEQGLSALHLAAQGRHAQT [D3E] the value was 2.66; for VIWLFDEQGLSALHLAAQGRHAQT [D3W], 2.95; for VIDLFDEQELSALHLAAQGRHAQT [G9E], 3.13.
As for VIDLFDEQQLSALHLAAQGRHAQT [G9Q], the protein stability index was found to be 2.75.
The value for VIDLFDEQRLSALHLAAQGRHAQT [G9R] was 2.4; that for VIDLFDEQSLSALHLAAQGRHAQT [G9S] was 2.68.
For VIDLFDEQILSALHLAAQGRHAQT [G9I] the value was 1.94; for VIDLFDEQFLSALHLAAQGRHAQT [G9F], 1.61; for VIDLFDEQCLSALHLAAQGRHAQT [G9C], 2.19.
As for VIDLFDEQPLSALHLAAQGRHAQT [G9P], the protein stability index was 3.2.
With VIDLFDEQLLSALHLAAQGRHAQT [G9L], the protein stability index is 2.07.
As to VIDLFDEQKLSALHLAAQGRHAQT [G9K], the protein stability index stood at 2.56.
For VIDLFDEQYLSALHLAAQGRHAQT [G9Y] the value was 1.6; for VIDLFDEQWLSALHLAAQGRHAQT [G9W], 1.69; for VIDLFDEQMLSALHLAAQGRHAQT [G9M], 1.93.
The value for VIDLFDEQALSALHLAAQGRHAQT [G9A] was 2.76.
For VIDLFDEQTLSALHLAAQGRHAQT [G9T] the value was 2.25.
With VIDLFDEQHLSALHLAAQGRHAQT [G9H], the protein stability index was found to be 2.77.
For VIDLFDEQDLSALHLAAQGRHAQT [G9D] the value was 3.16.
The value for VIDLFDEQVLSALHLAAQGRHAQT [G9V] was 1.66; that for VIDLFDEQNLSALHLAAQGRHAQT [G9N] was 3.41.

The record behind these values is the supplement of paper PMC10567573.
